Results as given in patent publication US6815189B1, “Gene from acremonium chrysogenum encoding a protein with cephalosporin C acetylhydrolase activity and methods of use of such gene” (Antibiotics, S.A.U., priority 1999, dated 2004).

System: [H][C@]12SCC(COC(C)=O)=C(C(=O)O)N1C(=O)[C@H]2NC(=O)CCC[C@@H](N)C(=O)O
Assay: Effect of substrate concentration on CPC-AH B activity (Lineweaver-Burk)
Assay type: biochemical, Acremonium chrysogenum
Conditions: other: CPC-AH B vs. CPC, 37.0 °C
Method: To quantify the enzymatic degradation of the CPC, a reaction mixture was prepared, based on that described by Fujisawa et al. (1975, Agric. Biol. Chem. 39: 1303-1309) that contained, in a total volume of 100 μl: Tris-HCl, pH 8.0, 50 mM; CPC, 20 mM and culture supernatant 75 μl. The mixture was incubated for 60 minutes at 37° C. and the reaction was stopped by adding 100 μl of methanol. The proteins precipitated were removed by centrifugation for 5 minutes at 14 000 rev/min in an Eppendorff centrifuge. Production of DAC was analysed by injecting 100 μl of the reaction mixture in an HPLC Beckman System Gold equipped with a μBondapack C18 column. Elution was performed using a mixture of solvents A (10 mM sodium acetate—acetic acid, pH 4.5) and B (100% acetonitrile) using a linear gradient from 0 to 3% of solvent B between the 0 and 2 minutes and constant 3% from minute 2 to 15 at a flow of 1.3 ml/min. The cephalosporins are detected by their absorbance at 260 nm. In these conditions DAC is eluted with a retention time of 3.1 min whereas for CPC this occurs at 8.3 min. Both compounds were identified by co-elution with standard samples of CPC and DAC.
With fractions obtained from ion exchange separation, tests of CPC-AH activity were performed by HPLC, varying the concentration of CPC. […]

Chain of CPC-AH B (Hapsidospora chrysogenum ATCC 11550) (chain, as listed by the source): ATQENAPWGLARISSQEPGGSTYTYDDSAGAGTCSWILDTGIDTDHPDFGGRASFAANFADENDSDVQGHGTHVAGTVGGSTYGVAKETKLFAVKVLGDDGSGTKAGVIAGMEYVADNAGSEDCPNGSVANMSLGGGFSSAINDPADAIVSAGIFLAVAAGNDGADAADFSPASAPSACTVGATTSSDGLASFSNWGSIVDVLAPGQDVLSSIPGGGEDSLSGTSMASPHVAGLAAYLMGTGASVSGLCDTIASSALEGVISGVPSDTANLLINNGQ

With “CPC-AH B (Hapsidospora chrysogenum ATCC 11550)” the Km was 33.72 mM and the Vmax was 91.95 pKat/mg.
